According to US20200283507A1 (US Dept. of Health and Human Services, published 2020):
Where a chain is given by its changes, count along the chain named.

B1: VHH 5.4 (VHH)
VHH: QVQLQQSGGGLVQPGGSLRLSCVASESTVSINIMGWYRQAPGKQRELVATITTGGTTNYADSVKGRFTISRDNAKNTVYLQMNSLEPEDTAVYYCNLKRRDLQARFGGYWGQGTQVTVSS
notes: llama VHH, MD2004 library; pHEN6, C-terminal His6 tag; also called clone 5.4
B2: VHH 4.1 (VHH)
VHH: B1 VHH with Q3K, V23A, V29I, I33T, M34L, K43N, S84N, E88G, A104S
notes: llama VHH, MD2004 library; pHEN6, C-terminal His6 tag; also called clone 4.1
B3: VHH 6.3 (VHH)
VHH: QVQLQQSGGGLVQPGGSLRLSCAASGSIFSIHTMGWYRQAPGKQRELVTTITTGGTTNYADSVKGRFTISRDDAKNTVYLQMNNLKPEDTAVYYCYALIQTASTTWYRQYWGQGTQVTVSS
notes: llama VHH, Norwalk (GI.1) library; also called clone 6.3
B4: VHH 13.1 (VHH)
VHH: QVKLQESGGGWVQAGGSLRLSCAASALTASITTMGWFRQTPEKEREFLAAINWTGDYKYYADSVKGRFTISRDNAKNTVDLQMNQLKPEDTAVYYCAASKIRNDIYLNDYTWYQYWGQGTQVTVSS
notes: llama VHH, Norwalk library, subtractive biopanning; His6 tag; also called 13.2; clone 13
B5: VHH 7.3 (VHH)
VHH: QVKLQESGGGLVQPGGSLRLSCTASRSIFTRAMAWYRQAPGKQRELVAAIDSGDRTHYADSVKGRFTISRNNAKDTLYLQMNSLKSEDTAVYYCNANLGALLDYWGQGTQVTVSS
notes: llama VHH, Norwalk library; pHEN6, C-terminal His6 tag; also called clone 7.3

Columns and labels:
[1] = molecular target: T1, Hu/NoV/GII.1/Hawaii/1971/U.S. VLP (human norovirus GII.1); test: VLP ELISA
T1 construct: mature; baculovirus VLP; VP2 may be present

[2] = molecular target: T2, Hu/NoV/Snow Mountain/GII.2/U.S. VLP (human norovirus GII.2); test: VLP ELISA
T2 construct: mature; baculovirus VLP; VP2 may be present

[3] = molecular target: T3, Hu/NoV/GII.2/Henryton/1971/U.S. VLP (human norovirus GII.2); test: VLP ELISA
T3 construct: mature; baculovirus VLP; VP2 may be present

[4] = molecular target: T4, Hu/NoV/GII.3/CHDC4031/1988/U.S. VLP (human norovirus GII.3); test: VLP ELISA
T4 construct: mature; baculovirus VLP; VP2 may be present

[5] = molecular target: T5, Hu/NoV/GII.4/CHDC4871/1977/U.S. VLP (human norovirus GII.4); test: VLP ELISA
T5 construct: mature; baculovirus VLP; VP2 may be present

[6] = molecular target: T6, Hu/NoV/GII.4/RockvilleD1/2012/U.S. VLP (human norovirus GII.4); test: VLP ELISA
T6 construct: mature; baculovirus VLP; VP2 may be present

[7] = molecular target: T7, Hu/NoV/GII.4/MD2004/2004/U.S. VLP (human norovirus GII.4); test: VLP ELISA
T7 construct: mature; baculovirus VLP; VP2 may be present; also called MD2004 VLP

[8] = molecular target: T8, Hu/NoV/GII.4/MD145-12/1997/U.S. VLP (human norovirus GII.4); test: VLP ELISA
T8 construct: mature; baculovirus VLP; VP2 may be present

[9] = molecular target: T9, Hu/NoV/GII.4/HS-191/2001/U.S. VLP (human norovirus GII.4); test: VLP ELISA
T9 construct: mature; baculovirus VLP; VP2 may be present

[10] = molecular target: T10, Hu/GII.6/Bethesda/2012/U.S. VLP (human norovirus GII.6); test: VLP ELISA
T10 construct: mature; baculovirus VLP; VP2 may be present

[11] = molecular target: T11, Hu/NoV/GII.7/DC119/U.S. VLP (human norovirus GII.7); test: VLP ELISA
T11 construct: mature; baculovirus VLP; VP2 may be present

[12] = molecular target: T7, Hu/NoV/GII.4/MD2004/2004/U.S. VLP; test: cell-based or functional assay
[13] = molecular target: T8, Hu/NoV/GII.4/MD145-12/1997/U.S. VLP; test: cell-based or functional assay
[14] = molecular target: T8, Hu/NoV/GII.4/MD145-12/1997/U.S. VLP; test: blockade ELISA: VLP binding to saliva Ly+
Protocol: (§1) For this assay saliva positive for Ly antigen collected from a secretor individual was used. Saliva was boiled (95° C.) for 10 minutes immediately after collection, centrifuged for 5 minutes at 13000×g and the supernatants stored at −20° C. until used. ELISA 96 well U bottom polyvinyl plates Dynatech (Nunc, Thermo, EEUU) were coated with 100 μl/well of a 1/400 saliva dilution in 50 μM carbonate-bicarbonate buffer, pH 9.6. The plate was incubated overnight at 37° C. in a wet atmosphere. In parallel, serial two-fold dilutions of VHH starting from 8 ug/ml were mixed with 1.5 ug/ml of NoV VLP Norwalk and MD145 and incubated for 1h at 37° C. After 6 washes and a blocking step with 5% dry milk/0.05% Tween₂₀-PBS, 50 ul of each VHH-VLP mixture was transferred to the reaction plate, in duplicate. The assay was developed using a specific polyclonal antiserum made in guinea pig (1:10,000) followed by a peroxidase labeled anti-guinea pig IgG (1:2,000) and ABTS/H₂O₂ as substrate chromogen (KPL), 100 μl per well. Absorbance at 405 nm was measured. Mean % control binding, EC50 and criteria for determination of a blockade VHH were calculated as described above.

[15] = molecular target: T7, Hu/NoV/GII.4/MD2004/2004/U.S. VLP; test: blockade ELISA: VLP binding to PGM type III
Protocol: (§2) Pig Gastric Mucin Type III (PGM) (Sigma Chemicals) was used as a substrate for NoV VLP antibody-blockade assay as previously described. Briefly, PGM was resuspended in PBS at 5 mg/ml and coated onto 96 well U bottom polyvinyl plates Dynatech (Nunc, Thermo, USA) at 10 μg/ml in PBS for 4 hours. Plates were then blocked ON at 4° C. in 5% dry milk in 0.05% Tween₂₀-PBS. […] One hundred μl of VLPs-VHH mix were transferred to the PGM coated plates and incubated for 1 hour. Bound VLPs were detected by specific hyperimmune sera made in guinea pig, followed by anti-guinea pig IgG-HRP (KLP). ABTS/H₂O₂ was used as chromogen/substrate solution. All incubations were performed at room temperature and absorbance at 405 nm was measured. Mean % control binding, EC50 and criteria for determination of a blockade VHH were calculated as described above.

[16] = molecular target: T8, Hu/NoV/GII.4/MD145-12/1997/U.S. VLP; test: blockade ELISA: VLP binding to synthetic HBGA H3
[17] = molecular target: T12, Hu/NoV/GI.1/Norwalk/1968/U.S. VLP (human norovirus GI.1, UniProt Q83884 1-530 (Norovirus (strain entry), limits assumed)); test: VLP ELISA
T12 construct: mature; full-length VP1 (ORF2) assembled as virus-like particle in baculovirus/Sf9; also called Norwalk VLP; NV
T12 sequence (looked up): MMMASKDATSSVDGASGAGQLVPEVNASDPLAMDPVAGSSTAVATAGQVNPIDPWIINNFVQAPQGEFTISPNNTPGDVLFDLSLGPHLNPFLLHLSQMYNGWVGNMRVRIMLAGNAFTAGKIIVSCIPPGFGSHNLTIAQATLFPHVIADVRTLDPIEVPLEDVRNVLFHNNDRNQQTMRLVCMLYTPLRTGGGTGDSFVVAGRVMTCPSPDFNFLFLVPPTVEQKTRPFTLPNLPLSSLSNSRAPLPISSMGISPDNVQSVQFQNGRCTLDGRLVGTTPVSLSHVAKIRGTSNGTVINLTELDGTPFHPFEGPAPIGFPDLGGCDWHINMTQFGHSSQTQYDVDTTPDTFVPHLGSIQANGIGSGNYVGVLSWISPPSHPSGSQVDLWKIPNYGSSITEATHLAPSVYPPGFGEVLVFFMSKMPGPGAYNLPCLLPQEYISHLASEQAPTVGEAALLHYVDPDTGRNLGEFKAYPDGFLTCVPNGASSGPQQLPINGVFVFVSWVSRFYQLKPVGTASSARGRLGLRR

[18] = molecular target: T13, Hu/NoV/GI.1/P7-587/2007/Stromstad/Sweden VLP (human norovirus GI.1); test: VLP ELISA
T13 construct: mature; baculovirus VLP; VP2 may be present; also called Norovirus 2007

[19] = molecular target: T12, Hu/NoV/GI.1/Norwalk/1968/U.S. VLP; test: cell-based or functional assay
[20] = molecular target: T13, Hu/NoV/GI.1/P7-587/2007/Stromstad/Sweden …; test: cell-based or functional assay
[21] = molecular target: T12, Hu/NoV/GI.1/Norwalk/1968/U.S. VLP; test: blockade ELISA: VLP binding to saliva Ly+
Protocol: as §1

[22] = molecular target: T12, Hu/NoV/GI.1/Norwalk/1968/U.S. VLP; test: blockade ELISA: VLP binding to PGM type III
Protocol: as §2

[23] = molecular target: T12, Hu/NoV/GI.1/Norwalk/1968/U.S. VLP; test: blockade ELISA: VLP binding to synthetic HBGA H1
[24] = molecular target: T14, Hu/NoV/GI.3/Desert-Shield395/1990/U.S. VLP (human norovirus GI.3); test: VLP ELISA
T14 construct: mature; baculovirus VLP; VP2 may be present

| Binder | minimum concentration of VHH able to recognize 100 ng of VLP [1] | minimum concentration of VHH able to recognize 100 ng of VLP [2] | minimum concentration of VHH able to recognize 100 ng of VLP [3] | minimum concentration of VHH able to recognize 100 ng of VLP [4] | minimum concentration of VHH able to recognize 100 ng of VLP [5] | minimum concentration of VHH able to recognize 100 ng of VLP [6] | minimum concentration of VHH able to recognize 100 ng of VLP [7] | minimum concentration of VHH able to recognize 100 ng of VLP [8] | minimum concentration of VHH able to recognize 100 ng of VLP [9] | minimum concentration of VHH able to recognize 100 ng of VLP [10] | minimum concentration of VHH able to recognize 100 ng of VLP [11] | HAI titer, B Rh+ RBC [12] | HAI titer, B Rh+ RBC [13] | EC50 [14] | EC50 [15] | EC50 [16] | minimum concentration of VHH able to recognize 100 ng of VLP [17] | minimum concentration of VHH able to recognize 100 ng of VLP [18] | HAI titer, 0 Rh- RBC [19] | HAI titer, 0 Rh- RBC [20] | other results |
| --- | --- | --- | --- | --- | --- | --- | --- | --- | --- | --- | --- | --- | --- | --- | --- | --- | --- | --- | --- | --- | --- |
| B1 | 1 ng/well | 2 ng/well | 2 ng/well | 0.5 ng/well | 0.5 ng/well | 0.5 ng/well | 1 ng/well | 4 ng/well | 0.25 ng/well | 1 ng/well | 0.5 ng/well | 0.39 µg/mL | 0.39 µg/mL | 1.27 mg/L | 2.02 mg/L | 0.718 mg/L |  |  |  |  |  |
| B2 | 1 ng/well | 2 ng/well | 1 ng/well | 2 ng/well | 0.5 ng/well | 1 ng/well | 2 ng/well | 2 ng/well | 0.5 ng/well | 2 ng/well | 0.5 ng/well | 0.19 µg/mL | 0.39 µg/mL | 1.38 mg/L | 2.91 mg/L | 0.712 mg/L |  |  |  |  |  |
| B3 |  |  |  |  |  |  |  |  |  |  |  |  |  |  |  |  | 0.5 ng/well | 0.5 ng/well | 0.19 µg/mL | 0.05 µg/mL | EC50 [21]: 2.04 mg/L; EC50 [22]: 0.661 mg/L; EC50 [23]: 1.01 mg/L |
| B4 |  |  |  |  |  |  |  |  |  |  |  |  |  |  |  |  | 2 ng/well |  | 0.19 µg/mL |  | EC50 [21]: 2.27 mg/L; EC50 [22]: 1.29 mg/L; EC50 [23]: 2.03 mg/L |
| B5 |  |  |  |  |  |  |  |  |  |  |  |  |  |  |  |  | 0.5 ng/well | 0.5 ng/well | 0.39 µg/mL | 0.05 µg/mL | minimum concentration of VHH able to recognize 100 ng of VLP [24]: 0.5 ng/well |
